Reference: PMC12352893, “Neuraminidase 1 secondary deficiency contributes to CNS pathology in neurological mucopolysaccharidoses via brain protein hypersialylation” (The Journal of Clinical Investigation, 2025)

Target: the molecule itself
Assay: SEC; gel filtration of total protein extracts from brain tissue of WT mice; GLB1 and NEU1 enzymatic activities measured in the eluted fractions

B1: β-galactosidase (GLB1), mouse brain (enzyme, mouse (endogenous in brain tissue), UniProt P23780 30-647, looked up)
chain: QRTFKLDYSRDRFLKDGQPFRYISGSIHYFRIPRFYWEDRLLKMKMAGLNAIQMYVPWNFHEPQPGQYEFSGDRDVEHFIQLAHELGLLVILRPGPYICAEWDMGGLPAWLLEKQSIVLRSSDPDYLVAVDKWLAVLLPKMKPLLYQNGGPIITVQVENEYGSYFACDYDYLRFLVHRFRYHLGNDVILFTTDGASEKMLKCGTLQDLYATVDFGTGNNITQAFLVQRKFEPKGPLINSEFYTGWLDHWGKPHSTVKTKTLATSLYNLLARGANVNLYMFIGGTNFAYWNGANTPYEPQPTSYDYDAPLSEAGDLTKKYFALREVIQMFKEVPEGPIPPSTPKFAYGKVALRKFKTVAEALGILCPNGPVKSLYPLTFTQVKQYFGYVLYRTTLPQDCSNPKPIFSSPFNGVRDRAYVSVDGVPQGILDRNLMTALNIRGKAGATLDILVENMGRVNYGRFINDFKGLISNMTINSTVLTNWTVFPLNTEAMVRNHLWGREASDEGHLDGRSTSNSSDLILPTFYVGNFSIPSGIPDLPQDTFIQFPGWSKGQVWINGFNLGRYWPTMGPQKTLFVPRNILTTSAPNNITVLELEFAPCSEGTPELCTVEFVDTPVIS
notes: β-galactosidase (GLB1), mouse, endogenous in brain extracts; detected by its enzymatic activity in gel-filtration fractions; Eluted both in the ~1,200 kDa LMC peak and as a 240 kDa tetramer; also called lysosomal β-galactosidase; source: endogenous, total protein extracts from mouse brain tissue
stoichiometry N: 4
